The text below walks through data of patent US20260139017A1, “COMPOSITIONS AND METHODS USING REELIN IN ALZHEIMER'S DISEASE” (The General Hospital Corporation, priority 2022, published 2026).

The test system of data set [1] is pDAB1. Nature of the data set: Trans-nasal (MIND) delivery of mini-RELN in mice, brain pDAB1 western blot. Format: in vivo. From the text: (§1) We used a MIND procure (trans nasal delivery using Minimally Invasive Nasal Depot (MIND), Padmakumar et al., J Control Release. 2021 Mar. 10; 331: 176-186) or intraperitoneal injection to administer miniRELN constructs into mice. MIND leverages the olfactory nerve to bypass the blood brain barrier. […] Using the MIND methodology provides one method of reaching the entorhinal cortex with minimal systemic exposure. […] (Jackson Laboratory) were housed under regular light/night cycle. All procedures were conducted under approved IACUC animal protocols. Prior to incision, the nasal region was shaved and cleaned using betadine and 70% alcohol and mouse subcutaneously injected with buprenorphine HCl and meloxicam (5 mg/kg). The nasal cavity was then opened using a scalped and nasal mucosa exposed using a microdrill. Once the mucosa was exposed, gel dispersion of either PBS or mini-RELN constructs (Innovagen) in 20% Pluronic (Sigma Aldrich) was subcutaneously delivered in the surgically-generated pocket. Mice were injected with meloxicam for 3 days prior euthanasia at day 4 to collect the brain tissue used for post-mortem analysis.
Western blotting was performed as follows. 20 ug protein homogenates were prepared under reducing and denaturing conditions using Laemmli buffer enriched with 10 mM DTT and 5 min boiling. Samples were electrophoretically separated in a 4-20% Gel at 90V and protein transferred to a PVDF membrane using iBlot™ 2 Dry Blotting System. The membrane was blocked using Intercept® (TBS) Blocking Buffer for 2 hours. We detected pDAB1 (Tyr232; 1:1000, rabbit, #3325 Cell signaling), and Beta actin (1:5000, mouse, #66009-1-Ig, Proteintech). Antibodies were diluted using Intercept® (TBS) Blocking Buffer and incubated overnight at 4C under gentle shaking. Prior secondary antibody incubation, membranes were washes 2 times using TBS-T for 10 minutes. As secondary antibodies we used IR Dye 800n CW Goat-anti-Rabbit (925-32211, Licor) and IR Dye 680 CW Goat-anti-Mouse (925-68070, Licor) both diluted 1:10000 in blocking buffer for 1 h at room temperature under gentle shaking. Membranes were washed three times with TBS-T prior IR detection using Odyssey imager. To quantify the results, each band was quantified using ImageJ and data expressed as pDAB1:βActin ratio normalized to the control.

For the next data set, the system named is pDAB1 (Tyr232). Nature of the data set: HRECs treated 5 minutes with recombinant mini-RELN, pDAB1 western blot. Format: cell-based, human. Particulars: for pDAB1 levels: 5 minutes, 4 ug/mL recombinant protein. Here is the method:
For in vitro screening of constructs using recombinant mini-RELN on HRECs, the cells were cultured in EBM-2 media enriched with EGM-2 Single Quots (Lonza) at 37° C. and 5% CO2 and experimentally tested at passage 7. 24 h prior experiment, cells were plated on a 6-well plate at 500,000 cells/mL. Two hours before the experiment, the cells were washed with PBS to remove residual growth media and then incubated with a starving media including EBM-2, 1% GlutaMax+0.2% Normicin. Treatments was conducted using recombinant mini RELN constructs obtained from Innovagen and Recombinant Mouse Reelin Protein from R&D systems (3820-MR-025/CF). Each treatment was incubated for 5 minutes at 4 ug/mL concentration and cells were subsequently harvested in lysis buffer was applied constituted of RIPA (Cell signaling), proteases inhibitors (cOmplete™, Mini, EDTA-free Protease Inhibitor Cocktail, Roche), phosphatases inhibitors (PhosSTOP, Roche), 1 μL of proteasome inhibitor MG-132 10 mM, 1% Triton X 100. The lysates were scraped and centrifugated at 15000 rpm for 10 minutes at 4° C. Total protein levels were quantified via BCA assay. For Western Blotting, 3.5 ug protein homogenates were prepared under reducing and denaturing conditions using Laemmli buffer enriched with 10 mM DTT and 5 min boiling. Samples were electrophoretically separated in a 4-20% Gel at 90V and protein transferred to a PVDF membrane using iBlot™ 2 Dry Blotting System. The membrane was blocked using Intercept® (TBS) Blocking Buffer for 2 hours. We detected pDAB1 (Tyr232; 1:1000, rabbit, #3325 Cell signaling), and total protein staining (Licor). Antibodies were diluted using Intercept® (TBS) Blocking Buffer and incubated overnight at 4C under gentle shaking. Prior secondary antibody incubation, membranes were washed 2 times using TBS-T for 10 minutes. As secondary antibodies we used IR Dye 800n CW Goat-anti-Rabbit (925-32211, Licor) diluted 1:10000 in blocking buffer for 1 h at room temperature under gentle shaking. Membranes were washed three times with TBST-T prior IR detection using Odyssey imager. To quantify the results, each band was quantified using ImageJ and data expressed as pDABL:total protein ratio normalized to the control.
(In general: A western blot detects proteins with antibodies after separation by electrophoresis.)

The test system of a further data set is total DAB1. The data set is described as follows: Overexpression of mini-RELN constructs in HRECs, total DAB1 western blot. It is filed as cell-based, human. Particulars: 24 h overexpression in HRECs. Here is the method:
For in vitro overexpression, the HRECs were cultured in EBM-2 media enriched with EGM-2 Single Quots (Lonza) at 37° C. and 5% CO2 and experimentally tested at passage 7. 24 h prior experiment, cells were plated on a 6-well plate at 500,000 cells/mL. The cell transfection of plasmids was done with Lipofectamine 2000 (5 μL, Life technologies) according to the manufacturer. In detail, one day prior to transfection, cells were seeded to be 70% confluent at moment of transfection. The day of transfection lipofectamine was diluted and incubated for 10 minutes at room temperature, to allow the formation of the lipophilic complex. Subsequently, each plasmid (1 μg, Invivogen) was added to the lipid complex of Lipofectamine and incubated for 10 minutes. We used OPTIMEM media (Gibco) to block the transfection after 5 hours, to allow cells to recover and facilitate replication. Prior 5 h and 24 h post-transfection, cells were imaged using 10× magnification light microscope (Olympus CKX53).
24 h post-transfection, cells were harvested for western blotting analysis. Total protein levels were quantified via BCA assay. […] We detected β-actin (1:5000, mouse, #66009-1-Ig, Proteintech), and total DAB1(1:100, SC-red tube; sc-271136 Dab1 (G-5), Santa Cruz). […] To quantify the results, each band was quantified using ImageJ and data expressed as DAB1:β-actin ratio normalized to the control. […]

Data set [2] in a line: Anti human IgG-Fc ELISA of hippocampus after trans-nasal mini-RELN. It is filed as in vivo, mice. Particulars: 72 h post injection, vs PBS vehicle.
Description: as §1

Data set [3] concerns pDAB1. The data set is described as follows: Immunofluorescence of cleared brain sections (Fc tag, pDAB1) after MIND delivery. Format: in vivo, mice. The procedure: 24 or 72 hours after Mini Reelin (225S) or vehicle administration, mice were intracardially perfused with 4% PFA in PBS and brains were harvested and incubated in 4% PFA at 4° C. for 24 hours. Sagittal sections were obtained at 1 mm thickness using a stainless-steel brain matrix. The entorhinal-hippocampal section of each brain was chosen for Clarity using Binaree® Tissue Clearing™ Kit (HRTC-012) following the kit guidelines. Sections were incubated with IgG-Fc tag and pDAB1 primary antibodies for 72 h followed by secondary antibody: Alexa 488 and Alexa 647, and DAPI for 1 h. Subsequently, sections were imaged using confocal SP8 microscope for quantification. […] This is proof of effective drug delivery, target engagement, and targeted RELN signaling activation, in the hippocampal formation.

[4] abbreviates: WT male mice, 72 h post-trans-nasal delivery.

Entries after “also recorded” stand apart in the source; their conditions may differ.

B1: 6xHISCR-50-R5-6-CtermH3447R (protein)
chain: MYRMQLLSCIALSLALVTNSGGHHHHHHGGEQCGAIMHGNAVTFCEPYGPRELITTGLNTTTASVLQFSIGSGSCRFSYSDPSIIVLYAKNNSADWIQLEKIRAPSNVSTIIHILYLPEDAKGENVQFQWKQENLRVGEVYEACWALGSRGGQTNATRFRLWQPYNNGKKEEIWIVDDFIIDGNNVNNPVMLLDTFDFGPREDNWFFYPGGNIGLYCPYSSKGAPEEDSAMVFVSNEVGEHSITTRDLNVNENTIIQFEINVGCSTDSSSADPVRLEFSRDFGATWHLLLPLCYHSSSHVSSLCSTEHHPSSTYYAGTMQGWRREVVHFGKLHLCGSVRFRWYQGFYPAGSQPVTWAIDNVYIGPQCEEMCNGQGSCINGTKCICDPGYSGPTCKISTKNPDFLKDDFEGQLESDRFLLMSGGKPSRKCGILSSGNNLFFNEDGLRMLMTRDLDLSHARFVQFFMRLGCGKGVPDPRSQPVLLQYSLNGGLSWSLLQEFLFSNSSNVGRYIALEIPLKARSGSTRLRWWQPSENGHFYSPWVIDQILIGGNISGNMVLEDDFTTLDSRKWLLHPGGTKMPVCGSTGDALVFIEKASTRYVVSTDVAVNEDSFLQIDFAVSCSVTDSCYAIELEYSVDLGLSWHPLVRDCLPTNVECSRYHLQRILVSDTFNKWTRITLPLPPYTRSQATRFRWHQPAPFDKQQTWAIDNVYIGDGCIDMCSGHGRCIQGNCVCDEQWGGLYCDDPETSLPTQLKDNFNRAPSSQNWLTVNGGKLSTVCGAVASGMALHFSGGCSRLLVTVDLNLTNAEFIQFYFMYGCLITPNNRNQGVLLEYSVNGGITWNLLMEIFYDQYSKPGFVNILLPPDAKEIATRFRWWQPRHDGLDQNDWAIDNVLISGSASTRKQNYMMNFSRQHGLRRFYNRRRRSLRRYP
Turning to B1, in the data set on pDAB1 [1] (setting [4]), the “pDAB1 levels in the hippocampus” value was “increased” and the “pDAB1 levels in the midbrain” value was “increased”. In addition, the “efficacy at RELN signaling (pDAB1) relative to comparators” value in the data set on pDAB1 (Tyr232) (5 minutes treatment) is “more effective than commercially available positive control; also recorded: more effective at triggering signaling compared to full-length RELN WT and full-length RELN COLBOS”. Also, the pDAB1 levels entry in the data set with pDAB1 (Tyr232) is on record as “increased pDAB1 levels”. In the data set on total DAB1, the “total DAB1 levels normalized to β-actin and lipofectamine control” value is recorded as “the most active”.

B2: FcIgG-RAP-CTRH3447R (protein)
chain: MYRMQLLSCIALSLALVTNSAPLERKSSVECPPCPAPPVAGPSVFLFPPKPKDTLMISRTPEVTCVVVDVSHEDPEVQFNWYVDGVEVHNAKTKPREEQFNSTFRVVSVLTVVHQDWLNGKEYKCKVSNKGLPAPIEKTISKTKGQPREPQVYTLPPSREEMTKNQVSLTCLVKGFYPSDIAVEWESNGQPENNYKTTPPMLDSDGSFFLYSKLTVDKSRWQQGNVFSCSVMHEALHNHYTQKSLSLSPGARTGGGGSGGGGSMAPRRVRSFLRGLPALLLLLLFLGPWPAASHGGKYSREKNQPKPSPKRESGEEFRMEKLNQLWEKAQRLHLPPVRLAELHADLKIQERDELAWKKLKLDGLDEDGEKEARLIRNLNVILAKYGLDGKKDARQVTSNSLSGTQEDGLDDPRLEKLWHKAKTSGKFSGEELDKLWREFLHHKEKVHEYNVLLETLSRTEEIHENVISPSDLSDIKGSVLHSRHTELKEKLRSINQGLDRLRRVSHQGYSTEAEFEEPRVIDLWDLAQSANLTDKELEAFREELKHFEAKIEKHNHYQKQLEIAHEKLRHAESVGDGERVSRSREKHALLEGRTKELGYTVKKHLQDLSGRISRARHNELTGGSGGSTRKQNYMMNFSRQHGLRRFYNRRRRSLRRYP
With B2, the “anti human IgG-Fc ELISA optical density in the hippocampus” value in data set [2] is “trended to be increased”. Besides, in the data set on pDAB1 [1] (Tau P301S mice, 72 h post-trans nasal delivery, vs PBS), the “pDAB1 levels in the entorhinal cortex” value is “increased”. Moreover, the pDAB1 levels result in the data set with pDAB1 (Tyr232) was “increased pDAB1 levels”. For the same molecule, the “presence of peptide in the brain (Fc immunofluorescence)” value with pDAB1 [3] (entorhinal-hippocampal section, 24 or 72 hours after MIND) is on record as “presence of the miniRELN peptide in the brain”. In the data set on pDAB1 [3] (wildtype animals, trans nasal, 24 hours, vs pluronic vehicle), the “RELN signaling measured via pDab1 (immunofluorescence)” value is listed as “increased levels of RELN signaling”.
